This note sets out measurements from PMC3228899 (Nature, 2011).

For test [1], the target named is 3HA-Cln2-Cdk1 complex (budding yeast | budding yeast …, UniProt P20438 1-545; P00546 1-298).
In test [2] the target is Clb5-TAP-Cdk1 complex (budding yeast | budding yeast …, UniProt P30283 1-435; P00546 1-298). In words: pull-down.
Chain of Clb5-TAP-Cdk1 complex (P30283 whole entry, chain 1 of 2): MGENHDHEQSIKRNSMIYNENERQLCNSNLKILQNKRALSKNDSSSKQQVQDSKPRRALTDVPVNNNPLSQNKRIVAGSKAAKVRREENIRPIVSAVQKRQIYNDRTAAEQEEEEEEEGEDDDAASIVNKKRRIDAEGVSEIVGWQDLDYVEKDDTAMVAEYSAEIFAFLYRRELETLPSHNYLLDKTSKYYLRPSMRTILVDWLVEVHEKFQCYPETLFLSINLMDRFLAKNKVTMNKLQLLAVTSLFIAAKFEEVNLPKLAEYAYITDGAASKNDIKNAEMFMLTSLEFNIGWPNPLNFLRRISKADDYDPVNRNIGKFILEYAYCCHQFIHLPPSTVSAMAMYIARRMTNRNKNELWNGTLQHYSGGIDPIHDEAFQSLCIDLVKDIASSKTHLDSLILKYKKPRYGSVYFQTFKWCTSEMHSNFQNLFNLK
Chain of Clb5-TAP-Cdk1 complex (P00546 whole entry, chain 2 of 2): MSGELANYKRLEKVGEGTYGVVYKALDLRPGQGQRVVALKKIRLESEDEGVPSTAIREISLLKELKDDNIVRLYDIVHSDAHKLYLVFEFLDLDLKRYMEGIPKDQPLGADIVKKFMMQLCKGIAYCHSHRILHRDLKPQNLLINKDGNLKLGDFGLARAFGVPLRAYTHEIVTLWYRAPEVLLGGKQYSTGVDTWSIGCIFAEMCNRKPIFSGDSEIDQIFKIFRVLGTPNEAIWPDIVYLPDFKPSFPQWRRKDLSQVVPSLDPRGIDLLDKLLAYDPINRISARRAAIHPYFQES

Chain of 3HA-Cln2-Cdk1 complex (P20438 whole entry, chain 1 of 2): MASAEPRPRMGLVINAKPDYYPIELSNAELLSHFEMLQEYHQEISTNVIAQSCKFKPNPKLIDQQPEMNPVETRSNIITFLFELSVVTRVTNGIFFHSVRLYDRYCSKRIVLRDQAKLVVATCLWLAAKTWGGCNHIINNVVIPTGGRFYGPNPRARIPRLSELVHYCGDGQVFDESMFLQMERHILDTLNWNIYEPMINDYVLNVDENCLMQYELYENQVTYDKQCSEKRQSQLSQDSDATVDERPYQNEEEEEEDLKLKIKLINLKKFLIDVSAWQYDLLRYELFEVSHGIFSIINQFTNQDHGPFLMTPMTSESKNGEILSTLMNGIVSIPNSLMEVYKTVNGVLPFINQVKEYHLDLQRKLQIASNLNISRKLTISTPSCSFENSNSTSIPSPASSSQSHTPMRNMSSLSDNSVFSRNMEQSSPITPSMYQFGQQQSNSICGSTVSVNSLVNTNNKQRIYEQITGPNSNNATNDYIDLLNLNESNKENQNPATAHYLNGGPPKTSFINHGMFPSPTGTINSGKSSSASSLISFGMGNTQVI
Chain of 3HA-Cln2-Cdk1 complex (P00546 whole entry, chain 2 of 2): as the sequence (P00546 whole entry, chain 2 of 2) above

B1: Cks1 (endogenous, in yeast) (natural protein, UniProt P20486 1-150, looked up)
chain: MYHHYHAFQGRKLTDQERARVLEFQDSIHYSPRYSDDNYEYRHVMLPKAMLKVIPSDYFNSEVGTLRILTEDEWRGLGITQSLGWEHYECHAPEPHILLFKRPLNYEAELRAATAAAQQQQQQQQQQQQQQQQHQTQSISNDMQVPPQIS
Turning to B1, in test [1], the “stoichiometry N” value is ~1 Cks1:Cdk1.

B2: full-length Sic1 (natural protein, budding yeast, UniProt P38634 1-284, looked up)
chain: MTPSTPPRSRGTRYLAQPSGNTSSSALMQGQKTPQKPSQNLVPVTPSTTKSFKNAPLLAPPNSNMGMTSPFNGLTSPQRSPFPKSSVKRTLFQFESHDNGTVREEQEPLGRVNRILFPTQQNVDIDAAEEEEEGEVLLPPSRPTSARQLHLSLERDEFDQTHRKKIIKDVPGTPSDKVITFELAKNWNNNSPKNDARSQESEDEEDIIINPVRVGKNPFASDELVTQEIRNERKRAMLRENPDIEDVITYVNKKGEVVEKRRLTDEEKRRFKPKALFQSRDQEH
For the molecule B2, the binding result in test [2] was “binds”.
